Results on one protein are retold here after publication PMC5009729 (Nucleic Acids Research, 2016).

The data set concerns the molecule itself. Nature of the data set: native MS.

B1: Cse2 (natural protein)
chain: MADEIDAMALYRAWQQLDNGSCAQIRRVSEPDELRDIPAFYRLVQPFGWENPRHQQALLRMVFCLSAGKNVIRHQDKKSEQTTGISLGRALANSGRINERRIFQLIRADRTADMVQLRRLLTHAEPVLDWPLMARMLTWWGKRERQQLLEDFVLTTNKNA
Consider B1, for which the binding result is “binds”.
